Measurements published in paper doi:10.1101/2023.06.21.546005 (bioRxiv, 2023).

B1: Recombinant wild-type L-chain ferritin from horse spleen (natural protein, UniProt P02791 1-175, looked up)
chain: MSSQIRQNYSTEVEAAVNRLVNLYLRASYTYLSLGFYFDRDDVALEGVCHFFRELAEEKREGAERLLKMQNQRGGRALFQDLQKPSQDEWGTTLDAMKAAIVLEKSLNQALLDLHALGSAQADPHLCDFLESHFLDEEVKLIKKMGDHLTNIQRLVGSQAGLGEYLFERLTLKHD
B2: Fr-A115T (natural protein, horse, UniProt P02791 1-175, looked up)
chain: MSSQIRQNYSTEVEAAVNRLVNLYLRASYTYLSLGFYFDRDDVALEGVCHFFRELAEEKREGAERLLKMQNQRGGRALFQDLQKPSQDEWGTTLDAMKAAIVLEKSLNQALLDLHTLGSAQADPHLCDFLESHFLDEEVKLIKKMGDHLTNIQRLVGSQAGLGEYLFERLTLKHD
B3: Fr-S118A (natural protein, horse, UniProt P02791 1-175, looked up)
chain: MSSQIRQNYSTEVEAAVNRLVNLYLRASYTYLSLGFYFDRDDVALEGVCHFFRELAEEKREGAERLLKMQNQRGGRALFQDLQKPSQDEWGTTLDAMKAAIVLEKSLNQALLDLHALGAAQADPHLCDFLESHFLDEEVKLIKKMGDHLTNIQRLVGSQAGLGEYLFERLTLKHD
B4: Fr-A115G (natural protein, horse, UniProt P02791 1-175, looked up)
chain: MSSQIRQNYSTEVEAAVNRLVNLYLRASYTYLSLGFYFDRDDVALEGVCHFFRELAEEKREGAERLLKMQNQRGGRALFQDLQKPSQDEWGTTLDAMKAAIVLEKSLNQALLDLHGLGSAQADPHLCDFLESHFLDEEVKLIKKMGDHLTNIQRLVGSQAGLGEYLFERLTLKHD
B5: Fr-A115V (natural protein, horse, UniProt P02791 1-175, looked up)
chain: MSSQIRQNYSTEVEAAVNRLVNLYLRASYTYLSLGFYFDRDDVALEGVCHFFRELAEEKREGAERLLKMQNQRGGRALFQDLQKPSQDEWGTTLDAMKAAIVLEKSLNQALLDLHVLGSAQADPHLCDFLESHFLDEEVKLIKKMGDHLTNIQRLVGSQAGLGEYLFERLTLKHD
B6: Fr-H114A (natural protein, horse, UniProt P02791 1-175, looked up)
chain: MSSQIRQNYSTEVEAAVNRLVNLYLRASYTYLSLGFYFDRDDVALEGVCHFFRELAEEKREGAERLLKMQNQRGGRALFQDLQKPSQDEWGTTLDAMKAAIVLEKSLNQALLDLAALGSAQADPHLCDFLESHFLDEEVKLIKKMGDHLTNIQRLVGSQAGLGEYLFERLTLKHD

Target: the molecule itself
Experiment: crystal structure

| Protein | stoichiometry N | binding result |
| --- | --- | --- |
| B1 | 24 | – |
| B2 | – | binds |
| B3 | – | binds |
| B4 | – | binds |
| B5 | – | binds |
| B6 | – | binds |
